Tests used:
TyrRS WT (Homo sapiens) = assay: filter binding; details: Filter binding: 10 mM HEPES pH 7.5, 4 mM KCl, 0.02 mg/mL BSA, 0.2 mM DTT, 30 min RT, TyrRS 125 nM to 8 uM, wash 60 mM HEPES pH 7.5, 10 mM MgCl2; EMSA …
[1] = test system: TyrRS K244Q (Homo sapiens); assay: filter binding; details: Filter binding: 10 mM HEPES pH 7.5, 4 mM KCl, 0.02 mg/mL BSA, 0.2 mM DTT, 30 min RT, TyrRS 125 nM to 8 uM, wash 60 mM HEPES pH 7.5, 10 mM MgCl2; EMSA …

Which Kd (TyrRS WT (Homo sapiens)) does the source give for human tRNATyr transcript here?
Its Kd is 849 nM.

And the Kd [1]?
The Kd was 1180 nM.
